Biological target: MMP-2 sensor (1A5 variant backbone with the human MMP-2 recognition site PLGMWSR, N-terminal GST tag with TEV site, C-terminal 5xHQ tag)

B1: Activated MMP-2 (Anaspec) (protein)
chain: YNFFPRKPKWDKNQITYRIIGYTPDLDPETVDDAFARAFQVWSDVTPLRFSRIHDGEADIMINFGRWEHGDGYPFDGKDGLLAHAFAPGTGVGGDSHFDDDELWTLGEGQVVRVKYGNADGEYCKFPFLFNGKEYNSCTDTGRSDGFLWCSTTYNFEKDGKYGFCPHEALFTMGGNAEGQPCKFPFRFQGTSYDSCTTEGRTDGYRWCGTTEDYDRDKKYGFCPETAMSTVGGNSEGAPCVFPFTFLGNKYESCTSAGRSDGKMWCATTANYDDDRKWGFCPDQGYSLFLVAAHEFGHAMGLEHSQDPGALMAPIYTYTKNFRLSQDDIKGIQELYGASPDIDLGTGPTPTLGPVTPEICKQDIVFDGIAQIRGEIFFFKDRFIWRTVTPRDKPMGPLLVATFWPELPEKIDAVYEAPQEEKAVFFAGNEYWIYSASTLERGYPKPLTSLGLPPDVQRVDAAFNWSKNKKTYIFAGDKFWRYNEVKKKMDPGFPKLIADAWNAIPDNLDAVVDLQGGGHSYFFKGAYYLKLENQSLKSVKFGSIKSDWLGC
luminescence, fold increase over control (background from MMP-2 sensor); least amount of MMP-2 detected: can be used to detect as little as 0.75 ng protein

From patent US20140030725
